# In patent US20230287068A1, “KERATIN BD-6, PREPARATION METHOD THEREFOR AND PHARMACEUTICAL COMPOSITION AND USE THEREOF” (INSTITUTE OF MATERIAL MEDICA, CHINESE ACADEMY OF MEDICAL …, priority 2019, published 2023):
# Tests used:
# [1] = tested on: acetic acid writhing of ICR mice; experiment: Acetic acid writhing test in ICR mice; format: in vivo; conditions: for Frequency of writhing / Writhing incubation period: 0.6% acetic acid i.p., within 15 minutes
# Experimental: • Animals: male ICR mice; • Drugs and reagents: aspirin, physiological saline, glacial acetic acid, protein BD-6. • Experiment grouping: • Model group; • Aspirin 300 mg/kg group; • Protein BD-6, 50 mg/kg group, 200 mg/kg group.
# One day after the experimental animals adapt to the environment, Aspirin 300 mg/kg, protein BD-6 50 mg/kg, 200 mg/kg were given orally one hour in advance, and the administration volume was 10 ml/kg; Then, 0.6% acetic acid solution was injected intraperitoneally, and the incubation period (seconds) and frequency of writhing in the animal was observed within 15 minutes.
# Calculate the mean and standard error of the data in each group. Compared with the model group by TTEST, P<0.05 was considered as statistically different.
# [2] = tested on: mice cough induced by ammonia water; experiment: Antitussive test, cough induced by ammonia water in mice; format: in vivo, ICR mice; conditions: for Incubation period (cough): 10% ammonia water 10 seconds; for Incubation period (cough) / Number of coughs: X±SEM; for Number of coughs: within 2 minutes
# Experimental: • Animals: male ICR mice; • Drugs and reagents: dextromethorphan hydrobromide, ammonia water, 0.2% CMC-Na, protein BD-6; • Apparatus: Compressed nebulizer (403T type), balance (XS105DU type). • Experiment grouping: • Solvent control group; • Dextromethorphan 15 mg/kg group; • Protein BD-6, 20 mg/kg group, 50 mg/kg group.
# Dextromethorphan and different doses of protein BD-6 (administration volume 10 ml/kg) were given orally in groups, and the solvent control group was given the same volume of distilled water. One hour later, mice were put into a sealed box and atomized 10% ammonia water for 10 seconds, and then observed and recorded the incubation period of cough in mice and the number of coughs in 2 minutes.
# Record the time point of oral administration, the time point of atomization experiment, the incubation period of mice cough and the number of coughs within 2 minutes, respectively. The incubation period of cough refers to the number of seconds from the start of the atomization of ammonia to the occurrence of cough. The performance of coughing in mice is based on contraction of their abdominal muscles (breast contraction) and opening their mouths at the same time. Calculate the mean and standard error of each group of data, and use TTEST to compare the model group with other groups, and P<0.05 is considered as a significant difference.
# [3] = tested on: phenol red excretion method in mice; experiment: Expectorant test, phenol red excretion method in mice; format: in vivo, ICR mice; conditions: for Phenol red excretion: X±SEM, N=10
# Experimental: • Animals: male ICR mice; • Drugs and reagents: Mucosolvan (ambroxol hydrochloride tablets), phenol red, sodium bicarbonate, protein BD-6; • Instruments: centrifuge (Sigma-3K15 type), balance (XS105DU type), Microplate tester (BIO-TEK type). • Experiment grouping: • Solvent control group; • Mucosolvan 30 mg/kg group; • Protein BD-6, 20 mg/kg group, 50 mg/kg group.
# The animals were fasted and water was taken freely 16 hours before the experiment. Orally administered Mucosolvan and different doses of protein BD-6 (administration volume 10 ml/kg) in groups, and the solvent control group was given the same volume of distilled water. One hour later, 2.5% phenol red solution was injected intraperitoneally. Mice were sacrificed by neck dislocation after 30 minutes. Take a trachea from below the thyroid cartilage to the branch of the trachea, and put the trachea into 3 ml 5% NaHCO3 solution and let it stand for 3 hours. Take 1 ml of the supernatant and centrifuge at 3000 rpm for 5 minutes. Measure and record the absorbance at 546 nm. According to the standard curve of phenol red, the excretion of phenol red was calculated.
# Record the time point of oral administration, the time point of intraperitoneal injection of 2.5% phenol red solution, and the time point of taking the trachea respectively; The absorbance of each group of samples was measured by the microplate reader at 546 nm, Calculate the excretion of phenol red according to the standard curve of phenol red. Calculate the mean and standard error of the data in each group, and use TTEST to compare the solvent control group with other groups, and P<0.05 is considered as a significant difference.
# [4] = tested on: PTZ-induced epilepsy in mice; experiment: Pentylenetetrazole (PTZ) induced epilepsy in mice; format: in vivo, ICR mice; conditions: for Cases of deaths / Grade IV seizure rate / mortality rate / Cases of Grade IV / Grade III seizure incubation period / Grade IV seizure incubation period: PTZ 65 mg/kg i.p.; for Cases of deaths / Grade IV seizure rate / mortality rate / Cases of Grade IV: 10 mice; for Cases of Grade IV: 15 min observation; for Grade III seizure incubation period / Grade IV seizure incubation period: mean±SEM; for Grade IV seizure incubation period: maximum 900 seconds
# Experimental: • Animals: male ICR mice; • Medicines: Pentylenetetrazol (PTZ), Retigabine, Protein BD-6. • Experiment grouping: • Model group; • Retigabine 60 mg/kg group; • Protein BD-6, 50 mg/kg group, 200 mg/kg group;
# The drug was administered once in the afternoon the day before modeling, On the day of modeling, PTZ-65 mg/kg (modeling agent) was injected intraperitoneal 1 hour after the test drug was administered intragastrically, and the positive drug can be administered once half an hour before modeling. Continue to observe for 15 minutes after injection of PTZ.
# Observation index: ①Seizure situation: the time of seizures from Grade III to Grade VI; ②Death situation
# Seizure grade: Refer to Racine grading standard: Grade 0: No response; Grade I: manifested as twitching of facial muscles or the corners of the mouth; Grade II: can nod; Grade III: twitching of one limb; Grade IV: rigidity or body twitching; Grade V: generalized epilepsy (generalized tonic seizures).
# Count the cases of seizures and deaths in each group of mice in the experiment; Grade III and IV incubation period. The incubation period of mice that have not attacked to Grade IV is recorded as the maximum of 900 seconds. Chi-square test was used for statistics of the number of cases. Calculate the mean and standard error of the incubation period. Use TTEST to compare the model group with other groups, and P<0.05 is considered as a significant difference.
# [5] = BD-6 20 mg/kg and 50 mg/kg, P<0.05
molecule,measurement,setting,value
"BD-6: recombinant keratin with the amino acid sequence SEQ ID NO:1, expressed in E. coli, about 45 kD; protein of Example 4 (protein, listed as Bos taurus) MTTTIRHFSSGSIKGSSGLAGGSSRSCRVSGSLGGGSCRLGSAGGLGSGLGGSSYSSCYSFGSGGSYGSGGYVSGGYGGGFGGVDGLLVGGEKATMQNLNDRLASYLDKVRALEEANTELELKIRDWYQKQAPGPAPDYSSYFKTIEDLRNKIHTATVDNANLLLQIDNARLAADDFRTKFETEQALRVSVEADINGLRRVLDELTLARADLEMQIENLKEELAYLRKNHEEEMKALRGQVGGEINVEMDAAPGVDLSRILNEMRDQYEKMAEKNRKDAEDWFFSKTEELNREVATNSELVQSGKSEISELRRTLQALEIELQSQLSMKASLEGSLAETENRYCMQLSQIQGLIGSVEEQLAQLRCEMEQQNQEYKILLDVKTRLEQEIATYRRLLEGEDAHLTQYKTKEPVTTRQVRTIVEEVQDGRVISSREQVHQTSH",Frequency of writhing,[1]; BD-6 50 mg/kg oral,31.1±3.7 times
same,Writhing incubation period,[1]; BD-6 50 mg/kg oral,220.7 ± 22.2 s
same,Frequency of writhing,[1]; BD-6 200 mg/kg oral,18.6±2.7^∗∗ times
same,Writhing incubation period,[1]; BD-6 200 mg/kg oral,193.2 ± 17.3 s
same,Times of writhing vs model group (in words),"[1]; BD-6 200 mg/kg, P<0.05",can significantly reduce the times of writhing in mice
same,Number of coughs vs solvent control (in words),[2]; [5],significant improvement in the number of coughs
same,Incubation period (cough),[2]; BD-6 20 mg/kg oral,33.3±3.3^∗ s
same,Number of coughs,[2]; BD-6 20 mg/kg oral,45.9±4.8^∗
same,Cough incubation period vs solvent control (in words),"[2]; BD-6 20 mg/kg, P<0.05",significant improvement effect in the incubation period
same,Incubation period (cough),[2]; BD-6 50 mg/kg oral,30.6 ± 2.5 s
same,Number of coughs,[2]; BD-6 50 mg/kg oral,49.8±3.8^∗
same,Excretion of phenol red vs solvent control (in words),[3]; [5],significantly increased the excretion of phenol red
same,Phenol red excretion,[3]; BD-6 20 mg/kg oral,0.789±0.115^∗ µg/ml
same,Phenol red excretion,[3]; BD-6 50 mg/kg oral,0.855±0.085^∗∗ µg/ml
same,Incubation period of Grade III epilepsy vs model group (in words),"[4]; BD-6 50 mg/kg and 200 mg/kg, PTZ model",have statistical differences compared with the model group
same,Cases of deaths,[4]; BD-6 50 mg/kg intragastric,0
same,Grade IV seizure rate,[4]; BD-6 50 mg/kg intragastric,60%
same,mortality rate,[4]; BD-6 50 mg/kg intragastric,0%
same,Cases of Grade IV,[4]; BD-6 50 mg/kg intragastric,6
same,Grade III seizure incubation period,[4]; BD-6 50 mg/kg intragastric,74±5^∗∗ s
same,Grade IV seizure incubation period,[4]; BD-6 50 mg/kg intragastric,440 ± 128 s
same,Cases of deaths,[4]; BD-6 200 mg/kg intragastric,1
same,Grade IV seizure rate,[4]; BD-6 200 mg/kg intragastric,90%
same,mortality rate,[4]; BD-6 200 mg/kg intragastric,10%
same,Cases of Grade IV,[4]; BD-6 200 mg/kg intragastric,9
same,Grade III seizure incubation period,[4]; BD-6 200 mg/kg intragastric,69±6^∗ s
same,Grade IV seizure incubation period,[4]; BD-6 200 mg/kg intragastric,201 ± 81 s
